One assay concerns the target T1, avidin (UniProt P02701 25-152).
T1 construct: Negative-control coat; also called avidin alone
The assay can be described thus: phage ELISA on avidin coat without biotin-DM1. (In general: An ELISA detects its analyte on a solid surface through an enzyme-linked reagent.)

The target in assay [1] is T2, ado-trastuzumab emtansine.
T2 construct: Antibody-drug conjugate immobilised on a CM5 SPR chip; also called TDM1; T-DM1
The assay can be described thus: SPR, kinetic assessment, immobilized T-DM1. For orientation: In SPR one partner is held on a chip, and binding of the other changes the refractive index at the surface.

In assay [2] the target is T2, ado-trastuzumab emtansine. The assay can be described thus: SPR, kinetic fit (1:1 Langmuir), TDM1 on a CM5 chip, 3A2 injected at 1.25-10 nM. The protocol: (§1) Preliminary screening of DM1/4 binders were performed using a neutravidin SPR chip with DM1-Biotin on the left channel. Phagemid purified sdAbs were flowed over the SPR chip for 2 minutes at a flow rate of 25 ul/min. After binding, sdAb was dissociated for 20 minutes. Observed sensorgrams were fit to an individual dissociation rate constant for each construct. Equilibrium and kinetic binding of 3A2 was assessed using a CM5 SPR chip with TDM1 immobilized on the left channel. […] Rate constants for 3A2-TDM1 association and dissociation were obtained through fitting of the observed sensorgrams for the 1.25, 2.5, 5, 7.5 and 10 nM injections to a 1:1 Langmuir binding model.
(§2) Anti-DM1/DM4 sdAb DF3A2 clone. […] DNA encoding for 3A2 was synthesized and expressed in the E. coli strain SHuffle and purified using nickel chromatography. Purified 3A2 was used to assess TDM1 binding using SPR. […] To obtain a secondary measure of binding kinetics sdAb injected at concentrations between 1.25-10 nM were fit to a 1:1 Langmuir binding model to obtain association and dissociation rate constants.

The target of assay [3] is T2, ado-trastuzumab emtansine. Kind of assay: SPR, equilibrium binding, TDM1 on a CM5 chip, 3A2 injected at 1.25-400 nM. The procedure: as §1, §2
The target of a further assay is T3, exatecan conjugated BSA (bovine, UniProt P02769 25-607, exatecan conjugated to BSA; chemistry and sites not stated).
T3 construct: Hapten-carrier conjugate immobilised on the SPR chip; also called BSA conjugated Exatecan
Kind of assay: SPR, kinetic fit, BSA-conjugated exatecan on the chip.

Assay [4] has as its target T4, Cetuximab-calicheamicin conjugate.
T4 construct: also called Cetuximab-calicheamcin conjugate; ADC (coated ELISA)
Kind of assay: competitive ELISA on cetuximab-calicheamicin coated plates, 64 µM CG4 with or without 10 µM free calicheamicin. The procedure:
(§3) Nunc Maxisorp 96-well plates were coated with 4 μg/ml Cetuximab or Cetuximab-calicheamicin, or 5 μg/ml Avidin. Plates were washed three times with PBST and three times with dH2O, and blocked with MPBS for 2 h at RT. For the Avidin coated plates, plates were washed three times with PBST and incubated with 1 μM Biotin-Calicheamcin. […] Plates were then washed three times with PBST, where bound sdAb was detected using an anti-His tag HRP-conjugated Ab diluted 1:1000 in MPBST. Following incubated and five washed with PBST, 100 μL of 1-Step Turbo TMB-ELISA solution was added to each well and incubated for 30 minutes. The reaction was quenched by adding 100 μL of Stop solution to each well and absorbance was measured at 450 nm. Alternatively, wells can also be incubated with 1:1000 diluted anti-His tag AP-conjugated Ab, instead of HRP conjugated Ab.

The target is the same in assay [5]. The assay can be described thus: competitive ELISA on cetuximab-calicheamicin coated plates, corrected for background. The protocol: as §3
The next assay concerns the target T5, cetuximab.
T5 construct: not shown: the constant regions
Kind of assay: ELISA, purified CG4 on unconjugated cetuximab coat, anti-His HRP detection. The protocol:
as §3

Consider nine molecules from patent US20230071019A1 (RESEARCH FOUNDATION FOR THE STATE UNIVERSITY OF NEW YORK, published 2023).

T1 sequence (P02701 25-152 limits assumed): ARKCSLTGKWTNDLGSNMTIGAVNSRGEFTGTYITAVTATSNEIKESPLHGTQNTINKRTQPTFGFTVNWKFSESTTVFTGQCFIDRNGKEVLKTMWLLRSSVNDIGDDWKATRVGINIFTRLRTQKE
T3 sequence (P02769 25-607 limits assumed): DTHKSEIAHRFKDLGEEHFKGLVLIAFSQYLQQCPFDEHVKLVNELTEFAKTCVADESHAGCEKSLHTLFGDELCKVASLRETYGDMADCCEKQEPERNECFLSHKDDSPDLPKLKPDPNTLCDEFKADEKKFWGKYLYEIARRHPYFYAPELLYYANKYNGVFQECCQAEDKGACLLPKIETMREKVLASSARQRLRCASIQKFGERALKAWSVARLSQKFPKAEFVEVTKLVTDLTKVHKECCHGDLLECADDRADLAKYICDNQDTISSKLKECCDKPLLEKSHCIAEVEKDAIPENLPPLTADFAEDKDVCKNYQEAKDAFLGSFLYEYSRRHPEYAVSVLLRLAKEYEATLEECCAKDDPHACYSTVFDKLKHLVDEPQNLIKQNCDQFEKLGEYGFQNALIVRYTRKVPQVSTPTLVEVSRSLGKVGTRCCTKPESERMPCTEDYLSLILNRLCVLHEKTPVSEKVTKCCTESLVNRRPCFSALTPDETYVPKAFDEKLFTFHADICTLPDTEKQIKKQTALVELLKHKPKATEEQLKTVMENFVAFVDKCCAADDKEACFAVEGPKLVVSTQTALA

B1: T3B4 (VHH)
VHH: QVQLQESGGGLVQAGDSLRLSCTASGRTFSRYTMGWFRQAPGKEREFVAAISTGGLRQYFGDSVRGRCTISRDNAKNTVYLQMDSLKPEDTAVYYCAATGNEYHWGRGTQVTVSS
notes: tested as phage media; also called DT3B4
Consider B1, for which the binding result in the assay with avidin is “no binding”.

B2: Anti-DM1/DM4 sdAb DF4B12 clone (VHH)
VHH: EVQLVESGGGLVQPGGSLRLSCAASGSIFGISYMGWYRQAPGKQREPVALITSGGDTAYGDSVKGRFTISRDNAKNTVYLQMNSLTPEDTSTFYCAAGFYRSDSPNRYDYWGQGTQVTVSS
notes: Purified sdAb; tag not described
A word on the Kd: it is a measure of binding affinity in units of concentration. Take B2: the affinity in assay [1], expressed as Kd, was 4.33 nM. The binding result with avidin was “no binding”.

B3: Anti-DM1/DM4 sdAb DF3A2 clone (VHH)
VHH: QVQLQESGGGLVQPGGSLRLSCAASGGIFGISYMGWYRQAPGKQREPVALITSGGDTAYGDSVKGRFAISRDNAKNTVYLQMNSLKPDDTSAYYCAAGFYRSDSPNRYDYWGQGTQVTVSS
notes: also called sdAb 3A2
In the case of B3, the Kd was determined as 12.3 nM in assay [2] and 25 nM in assay [3]. The binding result in the assay with avidin is “no binding”.

B4: Anti-DM1/DM4 sdAb DF3A4 clone (VHH)
VHH: QVQLQESGGGLVQPGGSLRLSCAASGSIFGISYMGWYRQAPGKQREPVALITSGGSTYYADSVKGRVTISRDNAKKTVYLQMNSLRPEDTSTYYCAAGFYRSDSPNRYDYWGQGTQVTVSS
notes: as for B2
B4 displayed a Kd in assay [1] of 5.59 nM. In addition, the binding result with avidin was “no binding”.

B5: T3H3 (VHH)
VHH: EVQLVESGGGLVQPGGSLRLSCAASGRTFSHDHMGWFRQAPGKEREFVAAISWTSSTYYGDSVKGRFTISRSNAKNTVYLQMNSLKPEDTAIYYCSWGVGYWGQGTQVTVSS
notes: tested as phage media; also called DT3H3
For B5, in the assay with avidin, the binding result is recorded as “no binding”.

B6: T3B3 (VHH)
VHH: EVQLVESGGGLVQAGGSLRLSCALSGGTLRSYTMGWIRQAPGKEREFVAGNRWSGGRTYYADSVKGRFTISGDNAENTVYLQMNSLKPEDTAVYYCTADVTEYGEDSSAYWGRGTQVTVSS
notes: tested as phage media; also called DT3B3
As for B6, the binding result in the assay with avidin is recorded as “no binding”.

B7: Anti-Exatecan sdAb TF7 clone (VHH)
VHH: QVQLQESGGGLAQPGGSLRVSCATSGFTFSSNYYISWVRQAPGRGLEWVSAINTGDGSTYYAHSVKGRFTISRDNAKNTLYLQMNSLKPEDTALYYCARSSLEGRIEKPYDYWGQGTQVTVSS
notes: Llama single domain antibody; also called anti-camptothecin sdAb (TF7)
The molecule B7 came in with a dissociation constant Kd in the assay with exatecan conjugated BSA of 10 nM.

B8: T3B5 (VHH)
VHH: QVQLVQSGGGLVQPGGSLRLSCTASGRTFSRYTMGWFRQAPGKEREFVAAISTGGLRQYFGDSVRGRCTISRDNAKSTVYLQMDSLKPEDTAVYYCAANWGTSYYWGQGTQVTVSS
notes: tested as phage media; also called DT3B5
Regarding B8, in the assay with avidin, the binding result is reported as “no binding”.

B9: Anti-Calicheamicin sdAb CG4 clone (VHH)
VHH: QVQLQESGGGLVQAGGSLRLSCAASGRTISGYAMGWFRQAPGKERDLVAAISRSGTSTYYADSVKGRFTISRDNAKNTVYLQMNSLKPEDTAVYYCNAPGGIWGQGTQVTVSS
Regarding B9, the “fold decrease of ELISA signal on addition of 10 µM free calicheamicin” value in assay [4] stood at 2.5 fold. For the same molecule, the “fold decrease of ELISA signal on addition of 10 µM free calicheamicin, corrected for background” value in assay [5] was around 3.3 fold. The binding result with cetuximab is “binds”.
